The values that follow come from PMC8920335.

The nature of data set [1]: immunoblot of lysates and conditioned medium. The following applies: glycan lost; control: WT CGA. A general note: A western blot detects proteins with antibodies after separation by electrophoresis.
A short description of data set [2]: immunoblot after BMA or MG132 treatment. The following applies: glycan lost; control: WT CGA.

On to “CGA (glycoprotein hormone α polypeptide): N52Q/N78Q double mutant (DM)”, for which, in data set [1], the expression_or_secretion entry is listed as “decreases”.

As to “CGA (glycoprotein hormone α polypeptide): N78Q”, in data set [1], the expression_or_secretion result is given as “decreases”. The degradation_or_half_life entry in data set [2] is reported as “changes”.

On to “CGA (glycoprotein hormone α polypeptide): N52Q”, for which, in data set [1], the expression_or_secretion entry was “decreases”. In data set [2], the degradation_or_half_life entry was “changes”.
